Test results: patent publication US20230024461A1, “METHODS FOR DUAL DNA/PROTEIN TAGGING OF OPEN CHROMATIN” (Beth Israel Deaconess Medical Center, Inc., priority 2019, published 2023)

Legend:
HEK293T nuclei = assay: iDAPT protein labeling, western blot of labeled nuclear lysates; type: biochemical, human; conditions: extracted HEK293T nuclei
Procedure: DNA and protein tagging by iDAPT. All iDAPT proteomic labeling assays were performed as described below unless indicated otherwise. 2.5 μmol MEDS-A/B, 2 μmol enzyme, and 1 μmol hemin chloride per channel were incubated at room temperature for 1 hour. 1e7 cells per sample were washed (500×g, 5 minutes, 4° C.), lysed and triturated in 100 μL LB1 (10 mM Tris-HCl pH 7.5, 10 mM NaCl, 3 mM MgCl2, 1% BSA, 0.01% digitonin, 0.1% Tween-20, 0.1% NP-40, and 1× cOmplete EDTA-free protease inhibitor cocktail [Roche]) for 3 minutes, and subsequently supplemented with an additional 1 mL of LB2 (10 mM Tris-HCl pH 7.5, 10 mM NaCl, 3 mM MgCl2, 1% BSA, 0.1% Tween-20, and 1× protease inhibitor). Nuclei were pelleted (500×g, 10 minutes, 4° C.), resuspended with tagmentation reaction mixture (20% dimethylformamide, 10 mM MgCl2, 20 mM Tris-HCl pH 7.5, 33% 1×PBS, 1% BSA, 0.01% digitonin, 0.1% Tween-20, 500 μM biotin-phenol, 1× protease inhibitor, and 2 pmol enzyme equivalent of enzyme:DNA:heme complex in a total volume of 500 μL), and incubated at 37° C. for 30 minutes with agitation on a thermomixer (1,000 rpm). 5 μL of tagmentation mix was saved for quality assessment as described above for ATAC-seq/iDAPT-seq sample preparation. The remaining nuclear suspension was then washed 2× with 1×PBS supplemented with 500 μM biotin-phenol, 1% BSA, 0.1% Tween-20, and 1× protease inhibitor (3000×g, 5 minutes, 4° C.) and labeled with 1 mM hydrogen peroxide and 500 μM biotin-phenol for 1 minute in 1×PBS with 1× protease inhibitor in a volume of 500 μL. Peroxidation reactions were quenched with 500 μL 2× quenching buffer (10 mM Trolox, 20 mM sodium ascorbate, 20 mM NaN3, and 1× protease inhibitor in 1×PBS). Labeled nuclei were then pelleted, washed with 1× quenching buffer, resuspended in 500 μL RIPA containing protease inhibitors, and frozen at −80° C. Lysates were thawed on ice, sonicated via a Sonic Dismembrator 100 (Fisher Scientific, setting 3, 15 seconds, 4 pulses), and incubated on ice for 30 minutes after the addition of 1 μL benzonase (EMD Millipore). Lysates were clarified by centrifugation (15,000×g, 20 minutes, 4° C.), quantified via the detergent-compatible Bradford assay (Thermo Fisher Scientific), and subjected to either Western blotting or quantitative mass spectrometry analyses as described below. For NB4 cell analysis, an additional endogenous peroxidase blocking step was added after nuclear extraction and before tagmentation: nuclei were resuspended in 500 μL 1×PBS containing 1% BSA, 0.03% hydrogen peroxide, and 0.1% NaN3 and incubated on ice for 30 minutes. Nuclei were pelleted and washed 4× with 1×PBS/1% BSA (3000×g, 5 minutes, 4° C.). Residual hydrogen peroxide was monitored by colorimetric assessment of supernatant via Quantofix peroxides test stick (Sigma).
Western blotting analysis. Whole cell or nuclear lysates were generated by resuspending cells or nuclei in RIPA (Boston BioProducts) supplemented with 1× cOmplete EDTA-free protease inhibitor cocktail (Roche). […] Lysates were clarified by centrifugation (15,000×g, 20 minutes, 4° C.) and their concentrations quantified via the detergent-compatible Bradford assay (Thermo Fisher Scientific). […] Membranes were blocked with 3% milk in PBS-T and incubated overnight with primary antibody and subsequently with secondary antibody after brief washing with PBS-T. Chemiluminescence was determined by applying ECL Western Blotting detection reagent (GE Healthcare) to membranes and imaging on an Amersham Imager 600 (GE Healthcare). […]

HT1080 cells = assay: Co-immunofluorescence/ATAC-see analysis; type: cell-based, human
Procedure: Co-immunofluorescence/ATAC-see analysis. ATAC-see was performed similarly as previously described with slight modifications (Chen et al., Nat. Methods 13:1013-1020, 2016). Enzyme and transposon DNA were mixed at a 1:1.25 enzyme:MEDS-A/B-AF647 molar ratio and incubated at room temperature for 1 hour. Adherent cells were grown on glass coverslips (Fisher Scientific, 12-540A) until 80-90% confluent, washed with 1×PBS, fixed with 1% formaldehyde (Electron Microscopy Services) in 1×PBS for 10 minutes, and washed twice with ice-cold 1×PBS. Suspension cells were washed and resuspended with 1×PBS. 50,000 cells were added to poly-lysine slides and incubated at room temperature for 1 hour in a humidified chamber. An equal volume of 2% formaldehyde was added and incubated for 10 minutes, whereupon slides were washed twice with ice-cold 1×PBS. Immobilized cells were lysed by incubation with LB1 for 3 minutes followed by LB2 for 10 minutes at room temperature. Cells were then subject to tagmentation (20% dimethylformamide, 10 mM MgCl2, 20 mM Tris-HCl pH 7.5, 33% 1×PBS, 0.01% digitonin, 0.1% Tween-20, and either 80 pmol enzyme equivalent of enzyme:DNA complex in a total volume of 100 μL for adherent cells or 10 pmol enzyme equivalent of enzyme:DNA complex in a total volume of 50 μL for suspension cells) for 30 minutes at 37° C. in a humidified chamber. Subsequently, cells were washed with 50 mM EDTA and 0.01% SDS in 1×PBS three times for 15 minute each at 55° C., lysed for 10 minutes with 0.5% Triton X-100 in 1×PBS at room temperature, and blocked with 1% BSA and 10% goat serum in PBS-T for 1 hour in a humidified chamber. Primary antibody was added to slides in 1% BSA/PBS-T and incubated at 4° C. overnight; slides were then washed and subjected to secondary antibody staining for 1 hour. Slides were washed with PBS-T three times for 15 minutes each, stained with DAPI (Sigma, 1 μg/mL) for 1 minute, washed with PBS for 10 minutes, and mounted with Fluorescence Mounting Medium (Dako). Confocal microscopy images were taken with an LSM 880 Axio Imager 2 at 63× magnification (Zeiss). Images were processed with Fiji/ImageJ v2.0.0.
Primary antibodies used were anti-RNA polymerase II CTD repeat YSPTSPS (phospho S2) (rabbit, Abcam ab5095, 1:500), anti-H3K27Ac (rabbit, Abcam ab4729, 1:500), anti-H3K9me3 (rabbit, Abcam ab8898, 1:500), anti-CCDCl2 (rabbit, Atlas Antibodies HPA060530, 1:200), anti-SNRPA (mouse, 3F9-1F7, Sigma-Aldrich WH0006626M1, 1:100). […]
Quantitative image analyses were performed with CellProfiler v3.1.5. […] Pearson correlation coefficients were determined by comparing ATAC-see pixel intensities with corresponding immunofluorescence intensity values within each ROI to assess the nucleus-to-nucleus variation in colocalization. […]

B1: Tn5-F: FLAG-tagged Tn5 transposase purified in-house, negative control probe; amino acid SEQ ID NO: 19 (protein)
chain: MITSALHRAADWAKSVFSSAALGDPRRTARLVNVAAQLAKYSGKSITISSEGSKAMQEGAYRFIRNPNVSAEAIRKAGAMQTVKLAQEFPELLAIEDTTSLSYRHQVAEELGKLGSIQDKSRGWWVHSVLLLEATTFRTVGLLHQEWWMRPDDPADADEKESGKWLAAAATSRLRMGSMMSNVIAVCDREADIHAYLQDKLAHNERFVVRSKHPRKDVESGLYLYDHLKNQPELGGYQISIPQKGVVDKRGKRKNRPARKASLSLRSGRITLKQGNITLNAVLAEEINPPKGETPLKWLLLTSEPVESLAQALRVIDIYTHRWRIEEFHKAWKTGAGAERQRMEEPDNLERMVSILSFVAVRLLQLRESFTPPQALRAQGLLKEAEHVESQSAETVLTPDECQLLGYLDKGKRKRKEKAGSLQWAYMAIARLGGFMDSKRTGIASWGALWEGWEALQSKLDGFLAAKDLMAQGIKIDYKDDDDK
modifications: FLAG tag
For B1, the peroxidase-dependent biotin signal (HEK293T nuclei) was “low signal”, the “ATAC-see correlation with H3K9me3 immunofluorescence” value (HT1080 cells; marker of transcriptionally inactive chromatin) was “similarly poor correlations” and the “ATAC-see correlation with H3K27Ac and RNAPII S2P immunofluorescence signal” value (HT1080 cells; markers of transcriptionally active chromatin) was “similarly positive correlations”.
